Test [1] has as its target human insulin receptor type B (IR(B)) (human) (UniProt P06213). Description: cell-based or functional assay.
Test [2] deals with T1, Human macrophage mannose receptor 1 (MRC1) (human) (UniProt P22897).
T1 sequence (looked up): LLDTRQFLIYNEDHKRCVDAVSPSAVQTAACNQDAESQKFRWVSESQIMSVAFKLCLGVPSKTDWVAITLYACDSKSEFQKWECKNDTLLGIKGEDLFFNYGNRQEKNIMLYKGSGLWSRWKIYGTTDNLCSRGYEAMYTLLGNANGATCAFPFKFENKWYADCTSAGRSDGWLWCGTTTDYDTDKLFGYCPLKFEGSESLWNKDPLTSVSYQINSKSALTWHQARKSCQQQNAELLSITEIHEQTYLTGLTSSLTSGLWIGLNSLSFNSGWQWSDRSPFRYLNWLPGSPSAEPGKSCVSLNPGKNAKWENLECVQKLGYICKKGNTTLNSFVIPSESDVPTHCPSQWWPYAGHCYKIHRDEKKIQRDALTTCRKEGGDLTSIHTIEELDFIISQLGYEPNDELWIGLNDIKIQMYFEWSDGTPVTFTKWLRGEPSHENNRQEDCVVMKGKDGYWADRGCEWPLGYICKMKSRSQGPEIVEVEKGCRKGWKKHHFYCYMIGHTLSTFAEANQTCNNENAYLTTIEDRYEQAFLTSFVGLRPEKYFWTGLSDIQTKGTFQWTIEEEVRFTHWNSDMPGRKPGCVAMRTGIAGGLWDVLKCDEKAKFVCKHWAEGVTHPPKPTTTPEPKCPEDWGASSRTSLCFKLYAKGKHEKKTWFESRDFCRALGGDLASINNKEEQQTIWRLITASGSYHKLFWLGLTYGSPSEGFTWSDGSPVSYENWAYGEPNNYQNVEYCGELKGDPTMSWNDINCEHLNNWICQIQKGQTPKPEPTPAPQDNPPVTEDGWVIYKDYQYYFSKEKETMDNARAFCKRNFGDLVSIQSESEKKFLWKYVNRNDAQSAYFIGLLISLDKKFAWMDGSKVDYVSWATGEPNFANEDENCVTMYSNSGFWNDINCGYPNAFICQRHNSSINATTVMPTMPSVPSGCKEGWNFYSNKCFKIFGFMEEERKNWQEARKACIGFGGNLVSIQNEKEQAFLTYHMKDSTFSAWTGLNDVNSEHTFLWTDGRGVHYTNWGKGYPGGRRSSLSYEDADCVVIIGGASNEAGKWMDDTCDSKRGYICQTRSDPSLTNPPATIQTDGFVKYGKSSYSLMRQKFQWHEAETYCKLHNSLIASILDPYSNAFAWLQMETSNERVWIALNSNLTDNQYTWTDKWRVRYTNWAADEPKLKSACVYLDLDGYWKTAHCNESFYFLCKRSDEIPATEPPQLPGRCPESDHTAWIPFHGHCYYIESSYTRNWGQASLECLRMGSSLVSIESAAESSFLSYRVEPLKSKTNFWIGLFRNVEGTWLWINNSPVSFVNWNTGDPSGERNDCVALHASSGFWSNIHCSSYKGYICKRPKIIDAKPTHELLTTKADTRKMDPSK
Description: competition with Eu-mannosylated-BSA on captured human MRC1, DELFIA.

Drawing on patent US20260021190A1, this text covers Human pIR IC50 (nM) and IC50 for one substance.

pIC50: −log10 of the molar value.

Sequence of UniProt P06213 (P06213 28-1382): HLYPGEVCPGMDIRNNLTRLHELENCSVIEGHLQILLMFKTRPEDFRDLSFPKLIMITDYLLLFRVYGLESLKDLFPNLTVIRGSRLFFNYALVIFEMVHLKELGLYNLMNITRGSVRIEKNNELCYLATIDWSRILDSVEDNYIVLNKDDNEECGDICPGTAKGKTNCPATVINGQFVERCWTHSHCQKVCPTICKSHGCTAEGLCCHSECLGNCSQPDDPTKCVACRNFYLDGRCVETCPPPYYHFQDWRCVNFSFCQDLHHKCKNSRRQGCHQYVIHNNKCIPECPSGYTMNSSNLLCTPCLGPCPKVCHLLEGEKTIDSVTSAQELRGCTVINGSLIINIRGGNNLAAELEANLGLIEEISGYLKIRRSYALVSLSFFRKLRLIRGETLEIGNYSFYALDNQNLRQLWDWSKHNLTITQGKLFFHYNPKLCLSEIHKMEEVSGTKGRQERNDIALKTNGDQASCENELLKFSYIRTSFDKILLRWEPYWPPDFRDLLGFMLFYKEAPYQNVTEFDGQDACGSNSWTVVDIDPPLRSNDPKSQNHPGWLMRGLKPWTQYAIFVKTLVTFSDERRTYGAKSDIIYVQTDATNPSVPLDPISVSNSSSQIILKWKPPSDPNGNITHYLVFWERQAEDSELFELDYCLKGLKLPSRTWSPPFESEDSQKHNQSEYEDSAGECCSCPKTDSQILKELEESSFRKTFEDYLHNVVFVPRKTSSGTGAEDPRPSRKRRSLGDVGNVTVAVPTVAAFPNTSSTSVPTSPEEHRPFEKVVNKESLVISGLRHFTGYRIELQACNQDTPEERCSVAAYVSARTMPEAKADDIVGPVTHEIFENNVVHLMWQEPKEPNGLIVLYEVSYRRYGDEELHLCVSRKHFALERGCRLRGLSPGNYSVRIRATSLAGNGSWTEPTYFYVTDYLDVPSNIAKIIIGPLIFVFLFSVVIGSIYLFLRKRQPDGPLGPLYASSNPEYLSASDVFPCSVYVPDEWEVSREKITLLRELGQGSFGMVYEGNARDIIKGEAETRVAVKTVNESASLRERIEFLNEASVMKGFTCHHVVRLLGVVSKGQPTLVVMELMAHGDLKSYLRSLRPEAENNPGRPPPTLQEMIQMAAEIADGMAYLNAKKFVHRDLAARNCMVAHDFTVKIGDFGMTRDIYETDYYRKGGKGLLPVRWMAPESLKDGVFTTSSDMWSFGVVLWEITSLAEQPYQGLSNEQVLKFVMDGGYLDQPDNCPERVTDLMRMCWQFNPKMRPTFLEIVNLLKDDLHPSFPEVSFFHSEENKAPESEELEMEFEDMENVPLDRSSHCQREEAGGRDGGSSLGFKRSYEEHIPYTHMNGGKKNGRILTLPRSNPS

What is called pIC50 is the IC50 on a negative log10 scale, so that one unit is a factor of ten. Low values mean a high IC50, high ones a low IC50. On to IOC-34 (Lispro) (ligand), for which, in test [1], the Human pIR IC50 (nM) was found to be 6.36 nM. For the same substance, the pIC50 in test [2] was 7.08.
